Laboratory results as given in paper PMC3794606, “Transactivation specificity is conserved among p53 family proteins and depends on a response element sequence code” (Nucleic Acids Research, 2013).

Columns and labels:
[1] = biological target: the molecule itself; assay: crystal structure; p73DBD S139F mixed at 2:1 molar ratio with annealed 20 bp DNA (…); hanging drop, 0.1 M Tris pH 8.5, 50-125 mM sodium acetate, 20-24% PEG 3350, room temperature; 3.7 A; asymmetric unit holds two protein molecules and one 10 bp half-site, the tetramer is made by crystal symmetry
[2] = biological target: T1, deltaNp73delta isoform WT (UniProt O15350-4 63-403); assay: fluorescence polarization; FP: 50 nM fluorescein-DNA, 0-20000 nM protein, 30 min on ice then room temperature; buffer, salt and pH not stated. Crystals: 0.1 M Tris pH 8.5, 50-125 mM sodium acetate, 20-24% PEG 3350, room temperature; conditions: protein: recombinant, chain copies: 4, label: fluorescein
T1 sequence: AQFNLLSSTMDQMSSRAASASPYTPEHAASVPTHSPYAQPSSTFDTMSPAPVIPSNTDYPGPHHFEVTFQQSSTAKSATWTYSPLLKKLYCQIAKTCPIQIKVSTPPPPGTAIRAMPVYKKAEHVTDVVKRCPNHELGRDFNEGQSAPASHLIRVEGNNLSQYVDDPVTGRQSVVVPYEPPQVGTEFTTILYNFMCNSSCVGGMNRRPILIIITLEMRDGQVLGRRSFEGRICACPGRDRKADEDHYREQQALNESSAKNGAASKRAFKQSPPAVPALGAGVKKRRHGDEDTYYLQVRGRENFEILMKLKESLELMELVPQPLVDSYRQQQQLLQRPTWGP

p73 DBD S139F [3] = biological target: T2, p73 DBD S139F (human, UniProt O15350 115-312, S139F); assay: fluorescence polarization; Hill 1.7 ± 0.1; FP: 50 nM fluorescein-DNA, 0-20000 nM protein, 30 min on ice then room temperature; buffer, salt and pH not stated. Crystals: 0.1 M Tris pH 8.5, 50-125 mM sodium acetate, 20-24% PEG 3350, room temperature; conditions: protein: recombinant; chain copies: 2; label: fluorescein; self-complementary
T2 sequence: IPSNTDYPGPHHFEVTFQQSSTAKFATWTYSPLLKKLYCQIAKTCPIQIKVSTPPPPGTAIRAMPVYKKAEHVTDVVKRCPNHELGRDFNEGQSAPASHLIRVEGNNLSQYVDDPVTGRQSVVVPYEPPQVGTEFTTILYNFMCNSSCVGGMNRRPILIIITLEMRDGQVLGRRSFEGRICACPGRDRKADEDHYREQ

p73 DBD S139F [4] = biological target: T2, p73 DBD S139F; assay: fluorescence polarization; Hill 1.9 ± 0.2; FP: 50 nM fluorescein-DNA, 0-20000 nM protein, 30 min on ice then room temperature; buffer, salt and pH not stated. Crystals: 0.1 M Tris pH 8.5, 50-125 mM sodium acetate, 20-24% PEG 3350, room temperature; conditions: protein: recombinant; chain copies: 2; label: fluorescein
p73 DBD S139F [5] = biological target: T2, p73 DBD S139F; assay: fluorescence polarization; Hill 1.5 ± 0.2; FP: 50 nM fluorescein-DNA, 0-20000 nM protein, 30 min on ice then room temperature; buffer, salt and pH not stated. Crystals: 0.1 M Tris pH 8.5, 50-125 mM sodium acetate, 20-24% PEG 3350, room temperature; conditions: protein: recombinant; chain copies: 2; label: fluorescein; self-complementary

B1: p73DBD S139F (human p73 DNA-binding domain, residues 115-312, S139F mutant) (domain or fragment, UniProt O15350 115-312, looked up)
chain: T2 sequence
notes: Crystallised with a 20 bp GAACA full-site DNA; On the DNA it forms a tetramer (dimer of dimers); also called p73 S139F DBD; S139F DBD mutant
Which “stoichiometry N” value [1] does the source give for B1 here?
Its value is 4.

B2: 20mer GAACA full-site (0/4 RY) (dsDNA)
DNA 1: GAACATGTTCGAACATGTTC
DNA 2: GAACATGTTCGAACATGTTC
B2 was tested. Which Kd ([2]; self-complementary) did it give?
Its Kd is 940 nM.

What about the Kd (p73 DBD S139F [3]) of the same binder?
The Kd was 4.48 µM.

B3: 20mer GGGCA full-site (4/4 RY) (dsDNA)
DNA 1: GGGCATGCCCGGGCATGCCC
DNA 2: GGGCATGCCCGGGCATGCCC
What does the source list for B3?
Kd [2]: 160 nM; Kd (p73 DBD S139F [4]): 230 nM

B4: 12mer GGGCA half-site (dsDNA)
DNA 1: TGGGCATGCCCA
DNA 2: TGGGCATGCCCA
For B4, which Kd (p73 DBD S139F [5]) is on record?
Its Kd is 1540 nM.
